According to the supplement of paper PMC6757056:
± gives the standard deviation of the averaged measurements.

B1: library; a variant is named by its letters at N, in order (parent)
chain: GCUGUCACCGGAAUACCAGCAUCGUCUUGAUGCCCUUGGAAGUCCGGUCUGAUGAGUCCNNNNNGGACGAAACAGC

Tests used:
theophylline [1] = variants of: B1; assay: FACS-Seq fitted mean relative fluorescence mCherry/BFP without ligand (log10 relative fluorescence); higher = higher reporter protein expression; details: HEK293T, ligand present: no
In short: (§1)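 HEK293T libraries were made by lentiviral transduction with a ribozyme-switch mCherry reporter and an EF1α-BFP marker, enriched, and incubated with or without ligand for 48 h. Cells were sorted into 6 mCherry/BFP bins, and each bin's genomic DNA was PCR-amplified, barcoded and run on MiSeq. Fluorescence was derived by normal fitting of the bin counts. The fitted log10(mCherry/BFP) mean was scaled to five spiked-in control ribozymes.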

theophylline [2] = variants of: B1; assay: normalized RNA/DNA level with ligand (relative to sTRSVctl = 100) (log10 (% of sTRSVctl)); higher = less ribozyme self-cleavage, higher mRNA level; details: ligand concentration (+) RNA-Seq: 5 mM, HEK293T, reporter: mCherry (pCS4076), ligand present: yes
In short: (§2)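 Only sequences with at least 100 DNA reads were analyzed, from HEK293T cells transfected with 4 µg per 6-well well of ribozyme switch library plasmids 72 h before RNA extraction with EDTA. Any ligand was added 1 h before transfection. RNA level was defined as RNA over DNA reads, normalized to a spiked-in non-cleaving sequence or to the top sequences, then scaled and log-transformed. The top set was 25 sequences, and the scaling was ×100 followed by log10.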

theophylline [3] = variants of: B1; assay: normalized RNA/DNA level without ligand (relative to sTRSVctl = 100) (log10 (% of sTRSVctl)); higher = less ribozyme self-cleavage, higher mRNA level; details: HEK293T, reporter: mCherry (pCS4076), ligand present: no
In short: as §2

theophylline [4] = variants of: B1; assay: FACS-Seq fitted mean relative fluorescence mCherry/BFP with ligand (log10 relative fluorescence); ligand concentration (+) FACS-Seq: 1 mM; higher = higher reporter protein expression; details: HEK293T, ligand present: yes
In short: as §1

Variant | FACS-Seq fitted mean (log10) (theophylline [1]) | normalized RNA/DNA level with ligand (log10) (theophylline [2]) | normalized RNA/DNA level without ligand (log10) (theophylline [3]) | FACS-Seq fitted mean (log10) (theophylline [4])
AUGGA | 0.368 ± 0.04 | 1.94 ± 0.043 | 1.68 ± 0.16 | 0.63116 ± 0.00056
GUGAU | -0.224 ± 0.019 | 2 ± 0.12 | 1.66 ± 0.024 | -0.0667 ± 0.046
UUCUC | 1.19 ± 0.051 | 1.99 ± 0.049 | 1.94 ± 0.057 | 1.15 ± 0.13
UUCUU | 0.641 ± 0.06 | 2.03 ± 0.11 | 1.99 ± 0.057 | 0.58 ± 0.037
CUGUA | 0.501 ± 0.02 | 2.08 ± 0.067 | 1.61 ± 0.052 | 0.643 ± 0.013
CUGUU | -0.291 ± 0.011 | 1.93 ± 0.061 | 1.81 ± 0.07 | -0.12 ± 0.062
CUGUC | 0.555 ± 0.065 | 2.021 ± 0.014 | 1.99 ± 0.021 | 0.5114 ± 0.0041
AUGUC | 0.983 ± 0.034 | 1.99 ± 0.11 | 1.84 ± 0.066 | 0.935 ± 0.12
AUGUU | 0.847 ± 0.054 | 1.93 ± 0.068 | 1.87 ± 0.031 | 0.8299 ± 0.0036
AUGUA | 0.696 ± 0.018 | 1.97 ± 0.11 | 1.77 ± 0.046 | 0.908 ± 0.042
AUGUG | 0.254 ± 0.065 | 1.96 ± 0.097 | 1.87 ± 0.029 | 0.295 ± 0.11
AUUGA | 0.66 ± 0.051 | 1.99 ± 0.038 | 1.79 ± 0.08 | 0.85337 ± 0.00081
AUUGC | 1.19 ± 0.033 | 2.0706 ± 0.0016 | 2.01 ± 0.087 | 1.02 ± 0.1
AUUGU | 1.06 ± 0.018 | 2.04 ± 0.047 | 1.88 ± 0.064 | 1.15 ± 0.022
CAUUC | – | 2.07 ± 0.066 | 1.92 ± 0.099 | –
CUGAU | 1.02 ± 0.13 | 1.995 ± 0.013 | 1.7215 ± 0.00053 | 1.07 ± 0.082
CUGAC | 0.906 ± 0.093 | 1.99 ± 0.056 | 1.99 ± 0.11 | 0.902 ± 0.031
CUGAA | 0.3855 ± 0.0027 | 2.006 ± 0.0026 | 1.317 ± 0.0043 | 0.763 ± 0.15
UCUUC | – | 2.03 ± 0.1 | 1.97 ± 0.046 | –
UUUCC | 1.01 ± 0.062 | 1.99 ± 0.028 | 1.97 ± 0.04 | 0.9258 ± 0.0036
UUGGA | 0.406 ± 0.064 | 2.01 ± 0.037 | 1.59 ± 0.14 | 0.494 ± 0.023
AUCUA | 0.874 ± 0.15 | 1.99 ± 0.087 | 1.89 ± 0.12 | 0.828 ± 0.069
AUCUU | 0.605 ± 0.046 | 2.03 ± 0.055 | 1.93 ± 0.086 | 0.585 ± 0.0056
AUCUC | 0.832 ± 0.12 | 2.03 ± 0.032 | 1.97 ± 0.013 | 0.758 ± 0.14
UUGUC | 0.132 ± 0.031 | 1.99 ± 0.027 | 2.01 ± 0.063 | 0.305 ± 0.035

Variant | FACS-Seq fitted mean (log10) (theophylline [1]) | normalized RNA/DNA level with ligand (log10) (theophylline [2]) | normalized RNA/DNA level without ligand (log10) (theophylline [3]) | FACS-Seq fitted mean (log10) (theophylline [4])
UUGUG | 0.172 ± 0.13 | 1.96 ± 0.09 | 1.868 ± 0.014 | 0.266 ± 0.051
UUGUA | 0.431 ± 0.12 | 1.88 ± 0.029 | 1.53 ± 0.21 | 0.555 ± 0.051
AUUCA | 0.9176 ± 0.0013 | 2.04 ± 0.066 | 1.83 ± 0.15 | 0.971 ± 0.12
AUUCC | 0.959 ± 0.011 | 1.99 ± 0.1 | 1.95 ± 0.072 | 0.909 ± 0.08
CUUUU | 1.04 ± 0.014 | 1.992 ± 0.0085 | 1.91 ± 0.045 | 1.15 ± 0.12
CUUUC | 1.07 ± 0.048 | 2.07 ± 0.067 | 2 ± 0.092 | 0.998 ± 0.19
AUUAC | 1.05 ± 0.17 | 1.99 ± 0.021 | 1.96 ± 0.12 | 0.926 ± 0.096
AUUAG | 0.738 ± 0.021 | 2.049 ± 0.0068 | 1.9 ± 0.094 | 0.738 ± 0.013
AUUAU | 0.905 ± 0.075 | 2.01 ± 0.021 | 1.88 ± 0.097 | 0.861 ± 0.095
AUUAA | 0.68 ± 0.04 | 1.94 ± 0.11 | 1.74 ± 0.099 | 0.832 ± 0.041
GUUUG | 0.972 ± 0.24 | 1.96 ± 0.091 | 1.77 ± 0.058 | 0.929 ± 0.17
AUGAG | 0.655 ± 0.014 | 1.914 ± 0.0079 | 1.812 ± 0.0077 | 0.868 ± 0.029
AUGAU | 0.439 ± 0.07 | 2.01 ± 0.086 | 1.75 ± 0.12 | 0.262 ± 0.027
AUGAA | 0.317 ± 0.045 | 1.94 ± 0.04 | 1.52 ± 0.074 | 0.5036 ± 0.0038
AUGAC | 0.5991 ± 0.0031 | 1.914 ± 0.016 | 1.87 ± 0.16 | 0.786 ± 0.021
CUCUC | 0.298 ± 0.1 | 2.03 ± 0.027 | 1.95 ± 0.045 | 0.448 ± 0.12
CUCUA | 0.786 ± 0.075 | 2.05 ± 0.018 | 1.78 ± 0.063 | 0.994 ± 0.09
CUCUU | 0.739 ± 0.01 | 2.032 ± 0.0025 | 1.91 ± 0.07 | 0.874 ± 0.038
CUGGA | 1.07 ± 0.09 | 2.02 ± 0.043 | 1.84 ± 0.095 | 1.09 ± 0.045
AUUUG | 0.103 ± 0.037 | 2.03 ± 0.083 | 1.93 ± 0.17 | 0.184 ± 0.037
AUUUA | 0.734 ± 0.078 | 2 ± 0.11 | 1.8 ± 0.08 | 0.834 ± 0.062
AUUUU | 0.213 ± 0.053 | 2.02 ± 0.043 | 1.88 ± 0.062 | 0.194 ± 0.022
AUUUC | 1 ± 0.085 | 2.01 ± 0.07 | 1.97 ± 0.11 | 0.865 ± 0.018
AUGCG | 0.848 ± 0.14 | 1.99 ± 0.11 | 1.87 ± 0.06 | 0.986 ± 0.1
AUGCC | 0.828 ± 0.054 | 2 ± 0.033 | 1.96 ± 0.071 | 0.852 ± 0.022

Variant | FACS-Seq fitted mean (log10) (theophylline [1]) | normalized RNA/DNA level with ligand (log10) (theophylline [2]) | normalized RNA/DNA level without ligand (log10) (theophylline [3]) | FACS-Seq fitted mean (log10) (theophylline [4])
AUGCA | 0.792 ± 0.023 | 2.023 ± 0.014 | 1.841 ± 0.0049 | 0.96 ± 0.14
UUUGU | 0.965 ± 0.067 | 2.07 ± 0.082 | 2.02 ± 0.041 | 0.8623 ± 0.0024
UUUGC | – | 2.05 ± 0.042 | 1.93 ± 0.023 | –
UUUGA | 0.62 ± 0.055 | 2.09 ± 0.097 | 1.94 ± 0.021 | 0.856 ± 0.079
UUGAC | 0.872 ± 0.033 | 2.05 ± 0.042 | 1.93 ± 0.075 | 0.849 ± 0.085
UUGAU | 0.68 ± 0.041 | 2.06 ± 0.1 | 1.82 ± 0.044 | 0.708 ± 0.03
UUGAA | 0.273 ± 0.006 | 1.94 ± 0.08 | 1.29 ± 0.064 | 0.619 ± 0.026
UUGCC | 0.794 ± 0.064 | 1.99 ± 0.067 | 1.95 ± 0.021 | 0.78 ± 0.06
UUGCU | 0.987 ± 0.11 | 1.94 ± 0.083 | 1.91 ± 0.03 | 0.922 ± 0.042
UUGCG | 1.18 ± 0.2 | 1.95 ± 0.094 | 1.82 ± 0.08 | 1.12 ± 0.074
UUUAA | 0.514 ± 0.017 | 2.05 ± 0.08 | 1.69 ± 0.019 | 0.695 ± 0.019
UUUAU | 0.444 ± 0.021 | 2.0202 ± 0.001 | 1.93 ± 0.06 | 0.417 ± 0.012
UUUAC | 0.968 ± 0.059 | 2.06 ± 0.073 | 1.98 ± 0.066 | 0.808 ± 0.084
CUGCU | 0.644 ± 0.032 | 1.92 ± 0.082 | 1.86 ± 0.062 | 0.658 ± 0.0024
CUGCC | 0.906 ± 0.094 | 2.09 ± 0.045 | 1.9591 ± 0.0014 | 0.841 ± 0.055
UUUUU | 0.93 ± 0.071 | 2.01 ± 0.027 | 1.95 ± 0.15 | 0.991 ± 0.017
UUUUC | 0.917 ± 0.042 | 2.01 ± 0.077 | 1.99 ± 0.18 | 0.94 ± 0.041
GUCUG | 0.742 ± 0.06 | 1.96 ± 0.074 | 1.87 ± 0.11 | 0.898 ± 0.069
UUCAA | – | 2.08 ± 0.056 | 1.86 ± 0.12 | –
CUUCC | 0.782 ± 0.05 | 2.02 ± 0.059 | 2.032 ± 0.0046 | 0.683 ± 0.091
CUUAC | 0.44 ± 0.11 | 2.04 ± 0.065 | 1.95 ± 0.15 | 0.194 ± 0.17
CUUAU | 0.864 ± 0.067 | 2.04 ± 0.071 | 1.907 ± 0.014 | 0.901 ± 0.013
CUUAA | 0.633 ± 0.018 | 1.98 ± 0.15 | 1.61 ± 0.14 | 0.961 ± 0.12
GUUGU | 0.526 ± 0.054 | 1.93 ± 0.19 | 1.84 ± 0.058 | 0.701 ± 0.16
